In publication PMC5378477, “Crystal structure and dynamics of a lipid-induced potential desensitized-state of a pentameric ligand-gated channel” (eLife, 2017):

Target: the molecule itself
Experiment: crystal structure; GLIC wt in DDM with 50 uM DHA and 0.5 mg/ml E. coli polar extract; sitting drop at 4 °C, sodium acetate pH 3.9-4.2, ammonium sulfate, PEG4000; 3.25 Å

B1: GLIC wt (natural protein)
chain: QDMVSPPPPIADEPLTVNTGIYLIECYSLDDKAETFKVNAFLSLSWKDRRLAFDPVRSGVRVKTYEPEAIWIPEIRFVNVENARDADVVDISVSPDGTVQYLERFSARVLSPLDFRRYPFDSQTLHIYLIVRSVDTRNIVLAVDLEKVGKNDDVFLTGWDIESFTAVVKPANFALEDRLESKLDYQLRISRQYFSYIPNIILPMLFILFISWTAFWSTSYEANVTLVVSTLIAHIAFNILVETNLPKTPYMTYTGAIIFMIYLFYFVAVIEVTVQHYLKVESQPARAASITRASRIAFPVVFLLANIILAFLFFGF
notes: GLIC, prokaryotic pH-gated pentameric ligand-gated ion channel; construct as in Hilf and Dutzler 2009 and Bocquet et al. 2009; residues 5-315 are named in the structure; Homopentamer; Crystallised with 50 uM DHA and E. coli polar lipids; also called GLIC-pH4-DHA (the structure solved here); source: E. coli C43, purified (amylose resin, SEC in DDM); not shown: MBP, N-terminal, cleaved
- stoichiometry N: 5
